What is called Kd is a measure of binding affinity in units of concentration.

For data set [1], the target named is T1, MraZ (UniProt Q7NB78 1-142).
T1 sequence: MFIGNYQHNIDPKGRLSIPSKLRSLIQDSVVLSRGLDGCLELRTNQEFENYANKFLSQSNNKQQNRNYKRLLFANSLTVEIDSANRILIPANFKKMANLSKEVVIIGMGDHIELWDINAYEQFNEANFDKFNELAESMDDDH
Briefly: EMSA; strength comparable to own site; 20 mM Tris-HCl pH 7.5, 100 mM KCl, 6% glycerol, 15 min at 37 °C; 20 pmol protein with 10 pmol dsDNA; 6% acrylamide gel, TB buffer pH 8.3, 10 °C, EtBr stain. Particulars: protein: recombinant; chain copies: 8. (In EMSA bound probe runs differently from free probe, usually more slowly.)

The target of data set [2] is T2, HsdC (controller protein of type I RM-system) (Mycoplasma gallisepticum S6, UniProt A0A0F6CKR7 1-64). Briefly: EMSA titration; printed as binding constant; 20 mM Tris-HCl pH 7.5, 100 mM KCl, 6% glycerol, 15 min at 37 °C; 20 pmol protein with 10 pmol dsDNA; 6% acrylamide gel, TB buffer pH 8.3, 10 °C, EtBr stain. Conditions: protein: recombinant; tags: C-terminal His-tag (pETm); chain copies: 2.

For data set [3], the target named is T2, HsdC (controller protein of type I …). Briefly: EMSA; similar or slightly weaker than PhsdC; 20 mM Tris-HCl pH 7.5, 100 mM KCl, 6% glycerol, 15 min at 37 °C; 20 pmol protein with 10 pmol dsDNA; 6% acrylamide gel, TB buffer pH 8.3, 10 °C, EtBr stain. Conditions: protein: recombinant; tags: C-terminal His-tag (pETm); chain copies: 2.
Data set [4] concerns the target T1, MraZ. Briefly: EMSA; control; 20 mM Tris-HCl pH 7.5, 100 mM KCl, 6% glycerol, 15 min at 37 °C; 20 pmol protein with 10 pmol dsDNA; 6% acrylamide gel, TB buffer pH 8.3, 10 °C, EtBr stain. Particulars: protein: recombinant; chain copies: 8.

B1: PhsdC-WT (dsDNA)
DNA 1: TTATCGGCTTTGTGTTAAAATAGTGTTAACGATTTTGAAG
DNA 2: CTTCAAAATCGTTAACACTATTTTAACACAAAGCCGATAA
For B1, the binding result with MraZ [1] is given as “binds”. Also, the Kd in data set [2] was roughly 5 nM.

B2: PtrnM (dsDNA)
DNA 1: ATTGTTATTATATGATAATAATGTGTAACACATCGCGGGA
DNA 2: TCCCGCGATGTGTTACACATTATTATCATATAATAACAAT
Take B2: in data set [3], the binding result is listed as “binds”.

B3: PmraZ (dsDNA)
DNA 1: AATTCAAAAGTGTTAAAAAGTGTGAGAAAGTGGGAAAAAT
DNA 2: ATTTTTCCCACTTTCTCACACTTTTTAACACTTTTGAATT
On to B3, for which, in the data set with MraZ [4], the binding result was “binds”.

B4: PclpB (dsDNA)
DNA 1: TAATAGCCTAAGTGCTAATTTTTTGTTATAATAAATCTAT
DNA 2: ATAGATTTATTATAACAAAAAATTAGCACTTAGGCTATTA
On to B4, for which the binding result in data set [3] is listed as “binds”.

These data come from PMC5282649, “Binding site of restriction-modification system controller protein in Mollicutes”.
